Molecular target: T1, CBM3a (family IIIa carbohydrate binding module) of the cellulosomal scaffolding protein CipC (Clostridium cellulolyticum (Ruminiclostridium cellulolyticum) H10)
T1 chain: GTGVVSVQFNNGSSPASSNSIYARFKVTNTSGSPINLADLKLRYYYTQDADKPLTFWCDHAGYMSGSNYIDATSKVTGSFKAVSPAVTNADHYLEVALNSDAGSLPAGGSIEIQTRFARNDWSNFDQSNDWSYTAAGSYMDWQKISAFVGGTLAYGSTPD
Assay: ITC
Conditions: domain or fragment; C-terminal His6 tag omitted. Limits not printed and no X2 feature in the entry: estimated from the CipC module order (CBM3a-X2-Coh1..7-X2-Coh8) and the ~95-aa X2 size (1EHX is the X2-N homologue). Both edges are uncertain by about 10 residues; the segment should contain the NGNT motif. Methods sometimes call this protein X2-N, but Results state X2-C was used in vitro. / C-terminal His6 tag omitted; modification not given

B1: X2-C module of the cellulosomal scaffolding protein CipC (protein)
chain: VGDVTPVNPTITPSTASFDKYVPANVNVTLTPNGNTFKGITGLTSGTDFTVSNNVVTISKSYLSTLAVGSKTLTFDFGVTNNPVLTLTITDSTPVV
Ka: 80200 M⁻¹

Source: PMC9022034
